The results in this text go back to the supplement of paper PMC9170038.

The subject of the series is MS2 coat protein. The series is described as follows: apparent KD of MS2 coat protein; designed switch direction (-1 OFF switch, 1 ON switch): -1; higher = weaker reporter binding. In short, it runs like this: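 The apparent KD reported per design is the median over clusters of curve fits to normalised cluster fluorescence. The RNA switches were transcribed on Illumina chips by stalled E. coli RNA polymerase. SNAP-549-labelled MS2 coat protein was titrated from 0.7 or 1.5 nM, doubling up to 3 µM, in Tris-HCl pH 7.5 buffer containing KCl, MgCl2, BSA, DTT, tRNA and Tween-20, with no input, 200 uM small-molecule ligand, or an oligonucleotide input.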

Where [1] appears, read: Eterna round: R95, input ligand: FMN 200 uM.
Setting [2] is: Eterna round: R95, input ligand: microRNA oligo, concentration not stated.
Where [3] appears, read: Eterna round: R95, input ligand: none.
Where [4] appears, read: input ligand: microRNA oligo, concentration not stated.

For the sequence “GAUAGAGAGCAGGAUAUCUUGGAUAAGUAUAGUAGAGAAGGGCUCACAUGAGGAUCACCCAUGUGGUCCAAGAU [JL Dibiri mod 12] (puzzle: Exclusion 6)”, the “apparent KD of MS2 coat protein” value under setting [1] worked out at 28 nM, the “apparent KD of MS2 coat protein” value under setting [2] came to 14.8 nM and the “apparent KD of MS2 coat protein” value under setting [3] came out at 15.8 nM.
Take “UUUAUGUCAGGAUAUGAUUAGAUCUACUUCGGUAGAUCUAAUCAGAAGGGACAUGAGGAUCACCCAUGUUUUUU [Ex4 - 3 - 16] (puzzle: Exclusion 4)”: the “apparent KD of MS2 coat protein” value under setting [2] is 41.6 nM.
Regarding “AAAAAAAAGAUAGGAUAUUAGAAAAAAAUGGUGAUAGAGACAUGAGGAUCACCCAUGUAAAAAAAUAAGAAGGGUCAAAAAAAA [AK ExNG2-V2-5] (Eterna round: R96, puzzle: Exclusion NG 2)”, the “apparent KD of MS2 coat protein” value by setting is: (input ligand: FMN 200 uM) 322 nM; under setting [4], 298 nM; (input ligand: none) 362 nM.
Take “UAAUAAAGUGUGAGGAUAUGCUGGUCCUUAGAUCAGCAGAAGGCACAUGAGGAUCACCCAUGUAAUAUAUAAAU [Mat - Exclusion 4 - JL Mod - D56] (Eterna round: R96, puzzle: Brourd's mod of Exclusion 4)”: the “apparent KD of MS2 coat protein” value under setting [4] was 29 nM.
Regarding “GUUAACGCAGGAUAUUAGUACAUGUACAUGAGGAUCACCCAUGUUUAUUGGGUCUAAGAAUAAGAAGGGCGAUGAA [JR_Ex5_Sub006] (Eterna round: R97, puzzle: Exclusion 5)”, the “apparent KD of MS2 coat protein” value was determined as 402 nM (input ligand: FMN 200 uM) and 631 nM (input ligand: none).
The matching figures for “AAACCAAUAGUCAGGAUAUCUUAGUCGCGGAUGUGGGAGAAGGGACAUGAGGAUCACCCAUGUGGGAGUAUGUG [Eternabot (L1) Solution 19] (Eterna round: R97, puzzle: Brourd's mod of Exclusion 4)”: 116 nM and 122 nM.
With “AAGAGGAUUAUAGGAUAUGAAGCUAAAACGGCGUUAGAAGGGUAUACAGAGUUACAUGAGGAUCACCCAUGUUGUGAUUUCUAA [AK ExNG1-V2-4.3] (Eterna round: R96, puzzle: Exclusion NG 1)”, the “apparent KD of MS2 coat protein” value (input ligand: FMN 200 uM) came to 52.6 nM, the “apparent KD of MS2 coat protein” value under setting [4] was found to be 36.9 nM and the “apparent KD of MS2 coat protein” value (input ligand: none) is 62.5 nM.
As for “GUUCCACGAGGAUAUGAGGGCAACUACAUGAGGAUCACCCAUGUGAGCGAUCCUCAGAAGUCAGAAGGCGUGGAGA [Eternabot (L2) Solution 77] (Eterna round: R97, puzzle: Exclusion 5)”, the “apparent KD of MS2 coat protein” value is 63.7 nM (input ligand: FMN 200 uM) and 70.4 nM (input ligand: none).
With “CCUAGACAUGAGGAUCACCCAUGUGAGGAUAUGAUGCGAUCGUCGAAAGACGAUAGCAUCAGAAGGCACAUAUG [Fiskers Ex 1 - 5] (Eterna round: R96, puzzle: Exclusion 1)”, the “apparent KD of MS2 coat protein” value by setting is: (input ligand: FMN 200 uM) 130 nM; under setting [4], 34.2 nM; (input ligand: none) 37.6 nM.
For the sequence “CCGGAAAUACAGGAUAUCGUAUCGGAUACGAUACGAGAAGGGUAUACAUGAGGAUCACCCAUGUGUCCUACCGG [Fiskers Ex 6 - 51] (puzzle: Exclusion 6)”, under setting [2], the “apparent KD of MS2 coat protein” value is 23.6 nM.
Consider “CUAGAUCAUUGGAUCUAGUACAUGAGGAUCACCCAUGUGACGAGUUACAUGUUAUAUAAGCUUUUUGCUCGUCAUUU [AK 1] (puzzle: Sensor v3, turn-off variant 1)”, for which the “apparent KD of MS2 coat protein” value was 63.4 nM under setting [1], 81.1 nM under setting [2] and 86.3 nM under setting [3].
On to “AAACCCGCGCGAGGAUAUCACAUGAGGAUCACCCAUGUGGCACUCCGUCACCGGGCAGUCCCGAGUGAGAAGGUGCAGGCGGAA [Entereis] (Eterna round: R96, puzzle: Exclusion NG 2)”, for which the “apparent KD of MS2 coat protein” value was 27.5 nM (input ligand: FMN 200 uM), 32.4 nM under setting [4] and 23.4 nM (input ligand: none).
Turning to “GUCAUACAUGAGGAUCACCCAUGUAAGGAUAUGCUAGCGGUCGGCUGACUGACUGCUAGCAGAAGGUACAUGAU (puzzle: Exclusion 1)”, the “apparent KD of MS2 coat protein” value under setting [2] was found to be 61.5 nM.
Turning to “ACAUGAGGAUCACCCAUGUACACGUAAUGGCUCAUGUAGAGUGAGGAUAUGUGAGACGAACGAGCACAGAAGGCACAAGACAGG [Deportation 10 - Jieux - Exclusion NG 3] (Eterna round: R96, puzzle: Exclusion NG 3)”, the “apparent KD of MS2 coat protein” value by setting is: (input ligand: FMN 200 uM) 38.3 nM; under setting [4], 23.8 nM; (input ligand: none) 34.8 nM.
On to “UCAUACGAUGAGGAUAUCUCAGUUAAAGUAUUUAGAGAAGGCGUUACAUGAGGAUCACCCAUGUUUAUGGGCAU [Ex-6 Malc#7] (puzzle: Exclusion 6)”, for which the “apparent KD of MS2 coat protein” value reads like this: under setting [1], 178 nM; under setting [2], 121 nM; under setting [3], 190 nM.
Take “CUUUGACAUGAGGAUCACCCAUGUGAGGAUAUGAUGCGAUCGUCGAAAGACGAUAGCAUCAGAAGGCACAUAUG [Fiskers Ex 1 - 7] (puzzle: Exclusion 1)”: the “apparent KD of MS2 coat protein” value under setting [2] was determined as 92.6 nM.
The same measure, in the same setting: next, “AGUGUGUUAGGAUAUCGGAUAUGCUGGAGGAGGUGGAGUUACGAGAAGGAACAUGAGGAUCACCCAUGUAGGAC [JR_Exclu4_Sub049] (puzzle: Exclusion 4)”: 25.7 nM.
Still for that read-out and setting: the same measure for “CAUCUGUGAGGAUAUGGUGAGUAGUGCCUGAGCGCUGCUCACCAGAAGGCACAUGAGGAUCACCCAUGUAUGAC [JL-ex4-2.01 denovo] (puzzle: Exclusion 4)”: 43.7 nM; for “CCAUCGAGUGUGAGGAUAUGCUGUUCGAAAGAGCAGCAGAAGGCACAUGAGGAUCACCCAUGUGGAUACGGUGG [Mat - Exclusion 4 - JL Mod - D82] (puzzle: Brourd's mod of Exclusion 4)”: 30.6 nM.
Take “UGGGUUCUCCAUAGAAGUAACAUGAGGAUCACCCAUGUAGGGCAAGUUUUUUGUUCGUCAUAGGCUGUGGAUUUGGA [JR_SV3TOV1_Sub020] (puzzle: Sensor v3, turn-off variant 1)”: the “apparent KD of MS2 coat protein” value was 90.8 nM under setting [1], 170 nM under setting [2] and 133 nM under setting [3].
On to “AGGUGCUUCUGGAGACAUGAGGAUCACCCAUGUUGAGUUAGCGAGGAUAUCGGUAAGGCAUGUGAUGAGAAGGCGCAAACCGAU [Ex NG3 #49] (Eterna round: R96, puzzle: Exclusion NG 3)”, for which the “apparent KD of MS2 coat protein” value runs as follows: (input ligand: FMN 200 uM) 50.6 nM; under setting [4], 35.5 nM; (input ligand: none) 49.5 nM.
Regarding “AACUUCUGAGGAUAUACAUAGAUUUACAUGAGGAUCACCCAUGUUCCUCUUUGUAUAAAUGUAGAAGGCAGAAGAA [Mat - Exclusion 5 - JL Mod - D72] (Eterna round: R97, puzzle: Exclusion 5)”, the “apparent KD of MS2 coat protein” value is, setting by setting: (input ligand: FMN 200 uM) 349 nM; (input ligand: none) 203 nM.
Regarding “UUCGUGCUGCUUUGCUGUACGAGUACAUGAGGAUCACCCAUGUAGGAUAUGGACAUGAGGAUCACCCAGAAGGAUAUGUGUUGC [salish99_ExNG3_r04_508] (Eterna round: R96, puzzle: Exclusion NG 3)”, under setting [4], the “apparent KD of MS2 coat protein” value was 87.5 nM.
With “UCUUUGUGAGGAUAUCAGUAGUAAAUAAAUAAAAUUACUACUGAGAAGGCACAUGAGGAUCACCCAUGUUCCUU [salish99_ex3_r3_091] (puzzle: Exclusion 4)”, under setting [2], the “apparent KD of MS2 coat protein” value was found to be 13.5 nM.
Consider “ACAUGAGGAUCACCCAUGUUUAUUGGGUACUAUACUAUCAGCAAGGAUAUGCAAAUUUUUUUUACGCAGAAGGUGCAGGAACCU [JR_ExcNG3_Sub070] (Eterna round: R96, puzzle: Exclusion NG 3)”, for which, under setting [4], the “apparent KD of MS2 coat protein” value was determined as 355 nM.
As for “CCGAGGUAGCGGUCCUAUGACAUGAGGAUCACCCAUGUACCUCGCUACGAGCUUUUUGCUCGUCUUAAAAUUCUCGG [Mat - Sensor v3 - turn-off var 1 - JL Mod - D29] (puzzle: Sensor v3, turn-off variant 1)”, the “apparent KD of MS2 coat protein” value was 47 nM under setting [1], 156 nM under setting [2] and 54 nM under setting [3].
The matching figures for “GUGAAGUAAGGAUAUACAUGAGGAUCACCCAUGUGGAGGAAGGUGAUGGGAGUAGGUAGUAGAAGGUACGAGGA [JR_Exclu3_Sub064] (puzzle: Exclusion 3)”: 115 nM, 159 nM and 201 nM.
On to “UUUGGGCAAGCAUGAUCCCACAUGAGGAUCACCCAUGUGUUCGUCUUAUAGGCUGCUGAGGCUUUUGCCUCGGUGGC [LRO Sensor-off var1-01 loose mod of D91 from Mat747] (Eterna round: R97, puzzle: Sensor, turn-off variant 1)”, for which the “apparent KD of MS2 coat protein” value is, setting by setting: (input ligand: FMN 200 uM) 751 nM; (input ligand: none) 965 nM.
Take “AGUACUAACACGAGAGUGUUAGUACUAUAAGCUUGUGUUACAUGAGGAUCACCCAUGUCCUCAUAAGCUCGUCUUAU [Mat - Sensor v3 - Turn-off var 2 - D79] (puzzle: Sensor v3, turn-off variant 2)”: the “apparent KD of MS2 coat protein” value by setting is: under setting [1], 124 nM; under setting [2], 40.5 nM; under setting [3], 116 nM.
Regarding “GUCGUGCGGCUUUGCUGUGCGAGUACAUGAGGAUCACCCAUGUAGGAUAUGGUACGCUUUGCGUGCCAGAAGGGCGUGCGUUGG [salish99_ExNG3_r04_007] (Eterna round: R96, puzzle: Exclusion NG 3)”, the “apparent KD of MS2 coat protein” value was determined as 38 nM (input ligand: FMN 200 uM), 28.6 nM under setting [4] and 35.4 nM (input ligand: none).
In the case of “GAUUGAGAGCAGGAUAUCUUAGAAAUGUAUUAAAGAGAAGGGCUCACAUGAGGAUCACCCAUGUGGUCCUAGAU [JL Dibiri mod 16] (puzzle: Exclusion 6)”, the “apparent KD of MS2 coat protein” value under setting [2] turned out to be 20.8 nM.
Regarding “CUCAUACAUGAGGAUCACCCAUGUGAGGAUAUACUCCGCACCACACAGGUCGGGUAGCGUAGAAGGUAUUGGGU [Eternabot (L1) Solution 85] (Eterna round: R97, puzzle: Exclusion 1)”, the “apparent KD of MS2 coat protein” value runs as follows: (input ligand: FMN 200 uM) 96.3 nM; (input ligand: none) 168 nM.
